From the nanobody polyreactivity screen of Harvey et al. (2022)

assay: yeast display, Sf9 membrane polyspecificity reagent, FACS + sequencing; frameworks hold sequencing errors
Summary of the method: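 Galactose induction of a Saccharomyces cerevisiae BJ5465 synthetic nanobody display library ran 36–48 hours. The cells were then stained for 1 hour at 4 °C with 10% biotinylated, detergent-solubilized Sf9 membrane reagent, pulled down on streptavidin microbeads and FACS-sorted into low and high (top ~1%) gates on expression and reagent-binding fluorescence. Labels for polyreactivity follow the gate of origin.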

Sequence	polyreactivity (PSR sort gate)
QVQLQESGDGLVQAVGSLRLSCAASGYISGYYYMGWYRQAPGKERELVAGIDAFGSSTNYADCVKGRFTISRDNATHTVYLQMNSLKPEDTAVYYCAARPDGDRLFSYWGQGTQVTVSS	low polyreactivity
QVQLQESGGCVVQAGGSLRLSCAASGTISDSGLMGWYRQAPGKERELVAGISSGGITNYADSVKGRFTISRDNAKNTVYLQMNSLKPEDTAVYWGQGTQVTVSS	low polyreactivity
QVQLQESGGDLEQAGGSLRLSCTAIGTISDVRFMGWYRQAPGKERELVATISYVTITYYADSVKGRFTISRDSEKHRVSAHDEPETGRYRGVLLRYYWGLGTQVTVSS	low polyreactivity
QVQLQESGGGLLQAGGSLRLSCAASGTIFRFRYMGWHRQAPGKERELVAGINGGTTTYYADSVIGRFTISRDNAKNTVYLQMNSLKPDDTAVYNCAAGASRLTYYDYWGQGTQVTVSS	low polyreactivity
QVQLQESGGGLLQECGSQRLSCAASGSISEGQDMGWYRRAPGKEREFVAGIAPGATTYYADSVKGRFTISRDNAKNTVYLQMNSLNPEDTAVYYCAARYVTESDHDYWGQVTQVTVSS	low polyreactivity
QVQLQESGGGLVHAGGSLRLSCAASGTISFINMMGWYRQAPGRERELVASINFGANTNYADSVKGRFTISRDNAKNTVYLQMNSLKPEYTAVYYCAVYDFDAYSLYYWGQGTLVTVSS	high polyreactivity
QVQLQESGGGLVKAGGSLRLSCAASGSISNSAAMGWYRQAPGKERELVVSIGHGASSNYADSVKGRFTISRDNAKNTVYLQMNSLKPEDTAVYYCAAYPGFLDGFFYWGQSTQVTVSS	high polyreactivity
QVQLQESGGGLVKAGGTPRLSCAASYNIFPDSVMCWYRQAPGTERELVATIGFVATTNYADSVKGRFTISRDNAKNTLYLQMNSLNPEDTAVYYCAAVPLNYEYFCYWGEGTQVTVSS	low polyreactivity
QVQLQESGGGLVLAGGSLRLSCSASGNIYVYGYKGWYRQAPRKEREFVATIDPGTNTNYADSVKDRFSISRDNAKNSVYLQMKSLKPEDNAVYYCAVEAGSDWPYRYWGLGTQVTVSS	low polyreactivity
QVQLQESGGGLVQACGSQRLSCAASGSISEGQDMGRYRRAPRKEREFVAGIAPGATTYYADSVKGRFTISRDNAKNTVYLQMNSLKPEDTAVYYCAARSVTETDHDYWGQGTQVTVSS	low polyreactivity
QVQLQESGGGLVQACSSLRLSCAASGTIFYYIMGWYRQAPGKERELVATIDLGGGTNYADSVKGRFTISRDDAKNTVYLQMSSLKPEDTAEYYCAVYLYRLTFFYYWGQGNQVTVSS	high polyreactivity
QVQLQESGGGLVQADGSLRLSCAASGSIFGYYNMGWYRQAPGKHRELVATINLCRITNYADSVKGRFTISRDNATNTVYVEMHSLNPDDTAVFYCAADEYAQRDLGYWGQGTQVTVSS	low polyreactivity
QVQLQESGGGLVQADGSLRLSCAASGTIFTQSYMGWYRQAPGKEREFVAGISNGTNTNYGDSVKGRFTISRDNAKNTVYLQMNSLKLEDTAVYYCAVKGFYVDVLAYWGQGTHVTVSS	high polyreactivity
QVQLQESGGGLVQAGGDLRLSCAASGNIFRDYIMGWYRQAPGKEREFVAGIDRGANTNYADSVKGRFTISRDNAKNTVYLQMNSLKQEDTAVYYCAVHTAIVPDFIYWGQGTQVTVSS	low polyreactivity
QVQLQESGGGLVQAGGSLCLSCAASGTIIFDGDMGWYRQAPGKEREFVAAINPGGSAYYADSVKGRLPLAAITHTVYLQMNCLKPEDTAVYYCAAKLFDVYGYYYWGQGTHVTVSS	low polyreactivity
QVQLQESGGGLVQAGGSLLSCAASGPISYYREMGWYRQAPGKERELVAGFGVGTITYYADSVKGRFTISRDNAKNTVYLQMNSLKPEVTAVYYCAAHIDGNDSHAYWGQGTQVTVIS	low polyreactivity
QVQLQESGGGLVQAGGSLRLGCAASGNISDAGYMGWYRQAPGKEREFVAAIAAGSNTNYADSVKGRFTISRDNAKNTVYMQLNSLKSEDTGVFYCAVASYDRVQYEYWGQGTQVTVNS	low polyreactivity
